{
  "source": "paper PMC4995489",
  "about": "“Staphylokinase has distinct modes of interaction with antimicrobial peptides, modulating its plasminogen-activation properties” (Scientific Reports, 2016)",
  "molecules": {"B1": {"name": "Mouse cathelicidin-related antimicrobial peptide (peptide)", "peptide": "GLLRKGGEKIGEKLKKIGQKIKNFFQKLVPQPEQ", "notes": "Cathelicidin-related antimicrobial peptide (CRAMP), the C-terminal peptide of the mouse cathelicidin precursor; also called mCRAMP"}, "B2": {"name": "Bovine lactoferricin (peptide)", "peptide": "FKCRRWQWRMKKLGAPSITCVRRAF", "modifications": "disulfide 3-20", "notes": "Lactoferricin B, the peptide derived by intestinal proteolysis of bovine lactoferrin; also called LfcinB"}, "B3": {"name": "Tritrp (C-terminally amidated tritrpticin) (peptide)", "peptide": "VRRFPWWWPFLRR-NH2", "notes": "Tritrpticin, a cathelicidin derived from porcine neutrophils; the amidated version was used"}},
  "key": {"[1]": {"target": "T1, SakΔN10 (staphylokinase with its first ten residues deleted, C-terminal His6-tag) (Staphylococcus aureus, UniProt Q99SU7)", "T1 construct": "Staphylokinase contains 136 amino acids and has a molecular weight of 15.5 kDa; made in house; host or cells: E. coli BL21 (DE3), pET29b", "T1 sequence (Q99SU7 38-163)": "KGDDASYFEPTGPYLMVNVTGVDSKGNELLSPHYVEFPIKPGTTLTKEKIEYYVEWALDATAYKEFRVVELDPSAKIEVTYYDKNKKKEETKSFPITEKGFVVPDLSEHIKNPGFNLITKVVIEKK", "experiment": "ITC of antimicrobial peptide binding to SakΔN10", "settings": "25 °C; for Kd / KD: 200–400 μM peptide titrated into 8 μM SakΔN10, 20 mM HEPES pH 7.4, One Set of Sites model, at least two experiments", "protocol": "(§1) Most peptides were purchased from Genscript (Piscataway, NJ) as custom-synthesized peptides synthesized using standard 9-fluorenylmethyoxycarbonyl (Fmoc) chemistry and they were purified by HPLC to >95% purity. […] The concentrations for most of the peptides were determined by UV absorption at 280 nm using molar extinction coefficients determined by ProtParam[54].\n(§2) A synthetic gene for staphylokinase with optimized codons for expression in Escherichia coli was purchased from GeneArt (Life Technologies). Staphylokinase genes have been cloned and sequenced from different origins: the bacteriophages sakφC and sak42D, and the genomic DNA of a lysogenic S. aureus strain (sakSTAR)[56]. These indicate amino acid sequence differences at three positions in the coding sequences. In this study, we have worked with the sakSTAR protein sequence as it is the most commonly used variant. The gene was subcloned into a pET29b (Novagen), giving the expressed protein a C-terminal His6-tag when expressed in E. coli BL21 (DE3) cells.\n(§3) All ITC runs were performed at 25 °C on a MicroCal VP-ITC microcalorimeter (Malvern, Westborough, MA). 200–400 μM peptide was titrated into 8 μM SakΔN10 or Sak in 20 mM HEPES, pH 7.4. […] Data analysis was performed using the MicroCal Origin software using the “One Set of Sites” binding model. At least two experiments were performed for each titration. Statistical analysis was performed to confirm the statistical validity of the differences in the KD values determined for LfcinB and Tritrp binding to SakΔN10 or Sak. p-values were calculated from Student’s t-tests at the 95% confidence level with a one-tailed hypothesis."}, "[2]": {"target": "T2, staphylokinase (Sak, full-length, sakSTAR sequence, C-terminal His6-tag) (Staphylococcus aureus, UniProt Q99SU7)", "T2 construct": "Staphylokinase contains 136 amino acids and has a molecular weight of 15.5 kDa; made in house; host or cells: E. coli BL21 (DE3), pET29b, synthetic gene from GeneArt", "T2 sequence (Q99SU7 28-163)": "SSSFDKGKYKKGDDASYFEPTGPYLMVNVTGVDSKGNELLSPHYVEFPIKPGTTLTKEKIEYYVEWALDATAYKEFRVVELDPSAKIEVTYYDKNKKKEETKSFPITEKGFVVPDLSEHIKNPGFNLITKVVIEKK", "experiment": "ITC of antimicrobial peptide binding to full-length staphylokinase", "settings": "25 °C, 200–400 μM peptide titrated into 8 μM Sak, 20 mM HEPES pH 7.4, One Set of Sites model, at least two experiments", "protocol": "as §1, §2, §3"}, "[3]": {"system": "Sak-dependent plasminogen activation", "settings": "mCRAMP expression upregulated during staphylococcal pneumonia, intranasal infection mouse model; cited from earlier work", "description": "In the present study, our aim was to evaluate staphylokinase as a more general interacting partner for antimicrobial peptides of different structures and origin. […] It is possible that additional factors may be involved in promoting its binding in vivo."}, "[4]": {"target": "T3, SakΔN10 (staphylokinase with its first ten residues deleted) (Staphylococcus aureus, UniProt P68802 38-163)", "T3 construct": "not shown: His6, C-terminal, kept", "T3 sequence": "T1 sequence (Q99SU7 38-163) with S24G", "experiment": "ITC; 200-400 μM peptide titrated into 8 μM Sak or SakΔN10 in the cell; 25 °C; 20 mM HEPES, pH 7.4, no salt; One Set of Sites model; at least two experiments each", "settings": "both partners purified"}, "[5]": {"target": "T4, Staphylokinase (full-length Sak, sakSTAR sequence) (Staphylococcus aureus, UniProt P68802 28-163)", "T4 construct": "also called wtSak; full Sak; not shown: His6, C-terminal, kept", "T4 sequence": "T2 sequence (Q99SU7 28-163) with S34G", "experiment": "ITC + NMR titration; ITC of mCRAMP into full-length Sak repeated at 37 °C, together with the NMR titration data; not shown", "settings": "both partners purified"}, "[6]": {"target": "T3, SakΔN10 (staphylokinase with its first …)", "experiment": "ITC; 200-400 μM peptide titrated into 8 μM Sak or SakΔN10 in the cell; 25 °C; 20 mM HEPES, pH 7.4, no salt; One Set of Sites model; at least two experiments each", "settings": "both partners purified", "remark": "listed apart in the source"}, "[7]": {"target": "T4, Staphylokinase (full-length Sak, …)", "experiment": "ITC; 200-400 μM peptide titrated into 8 μM Sak or SakΔN10 in the cell; 25 °C; 20 mM HEPES, pH 7.4, no salt; One Set of Sites model; at least two experiments each", "settings": "both partners purified"}, "[8]": {"target": "T4, Staphylokinase (full-length Sak, …)", "experiment": "ITC; 200-400 μM peptide titrated into 8 μM Sak or SakΔN10 in the cell; 25 °C; 20 mM HEPES, pH 7.4, no salt; One Set of Sites model; at least two experiments each", "settings": "both partners purified", "remark": "listed apart in the source"}},
  "note": "Changes are numbered by the printed parent chain. “Also recorded” adds a separate entry of the source. Bridges are numbered along the chain shown (N, C = ends). Where no end group is shown, it is not given here.",
  "data": [
    {"molecule": "CC[C@H](C)[C@@H]1NC(=O)[C@H](CO)NC(=O)[C@@H]2CCCN2C(=O)[C@H](C)NC(=O)CNC(=O)[C@H](CC(C)C)NC(=O)[C@H](CCCCN)NC(=O)[C@H](CCCCN)NC(=O)[C@H](CCSC)NC(=O)[C@H](CCCNC(=N)N)NC(=O)[C@H](Cc2c[nH]c3ccccc23)NC(=O)[C@H](CCC(N)=O)NC(=O)[C@H](Cc2c[nH]c3ccccc23)NC(=O)[C@H](CCCNC(=N)N)NC(=O)[C@H](CCCNC(=N)N)NC(=O)[C@@H](NC(=O)[C@H](CCCCN)NC(=O)[C@@H](N)Cc2ccccc2)CSSC[C@@H](C(=O)N[C@H](C(=O)N[C@@H](CCCNC(=N)N)C(=O)N[C@@H](CCCNC(=N)N)C(=O)N[C@@H](C)C(=O)N[C@@H](Cc2ccccc2)C(=O)O)C(C)C)NC(=O)[C@H]([C@@H](C)O)NC1=O", "note": "[LfcinB]", "values": [
      {"measurement": "Kd", "setting": "[1]", "value": 0.37, "unit": "µM"},
      {"measurement": "Kd", "setting": "[2]", "value": 27.3, "unit": "µM"}
    ]},
    {"molecule": "CC(C)C[C@H](NC(=O)[C@H](Cc1ccccc1)NC(=O)[C@@H]1CCCN1C(=O)[C@H](Cc1c[nH]c2ccccc12)NC(=O)[C@H](Cc1c[nH]c2ccccc12)NC(=O)[C@H](Cc1c[nH]c2ccccc12)NC(=O)[C@@H]1CCCN1C(=O)[C@H](Cc1ccccc1)NC(=O)[C@H](CCCNC(=N)N)NC(=O)[C@H](CCCNC(=N)N)NC(=O)[C@@H](N)C(C)C)C(=O)N[C@@H](CCCNC(=N)N)C(=O)N[C@@H](CCCNC(=N)N)C(N)=O", "note": "[Tritrp]", "values": [
      {"measurement": "Kd", "setting": "[1]", "value": 2.42, "unit": "µM"},
      {"measurement": "Kd", "setting": "[2]", "value": 11.2, "unit": "µM"}
    ]},
    {"molecule": "GLLRKGGEKIGEKLKKIGQKIKNFFQKLVPQPEQ [mCRAMP, mouse cathelicidin-related antimicrobial peptide, α-helical]", "values": [
      {"measurement": "KD", "setting": "[1]", "value": "weak interaction"},
      {"measurement": "augmentation of Sak-dependent plasminogen activation", "setting": "[3]", "value": "two-fold"},
      {"measurement": "KD", "setting": "[2]", "value": "no binding; also recorded: no interaction"}
    ]},
    {"molecule": "melittin", "values": [
      {"measurement": "N (stoichiometry)", "setting": "[1]; 200–400 μM peptide into 8 μM SakΔN10, 20 mM HEPES pH 7.4, One Set of Sites model", "value": "~1"},
      {"measurement": "KD", "setting": "[1]", "value": "weak interaction"},
      {"measurement": "KD", "setting": "[2]", "value": "weak interaction"}
    ]},
    {"molecule": "B1", "values": [
      {"measurement": "stoichiometry N", "setting": "[4]", "value": "~1"},
      {"measurement": "Kd", "setting": "[5]", "value": "≥ 100", "unit": "µM"}
    ]},
    {"molecule": "B2", "values": [
      {"measurement": "Kd", "setting": "[6]", "value": 0.37, "unit": "µM"},
      {"measurement": "dH", "setting": "[6]", "value": -30.1, "unit": "kcal/mol"},
      {"measurement": "stoichiometry N", "setting": "[6]", "value": 0.99},
      {"measurement": "Kd", "setting": "[7]", "value": 27.3, "unit": "µM"},
      {"measurement": "dH", "setting": "[7]", "value": -4.68, "unit": "kcal/mol"},
      {"measurement": "stoichiometry N", "setting": "[7]", "value": 0.98},
      {"measurement": "Kd", "setting": "[8]", "value": 27.2, "unit": "µM"}
    ]},
    {"molecule": "B3", "values": [
      {"measurement": "Kd", "setting": "[6]", "value": 2.42, "unit": "µM"},
      {"measurement": "dH", "setting": "[6]", "value": -7.01, "unit": "kcal/mol"},
      {"measurement": "stoichiometry N", "setting": "[6]", "value": 1.14},
      {"measurement": "Kd", "setting": "[7]", "value": 11.2, "unit": "µM"},
      {"measurement": "dH", "setting": "[7]", "value": -3.02, "unit": "kcal/mol"},
      {"measurement": "stoichiometry N", "setting": "[7]", "value": 1.16}
    ]}
  ]
}
